Source: patent US20120329707A1 (INDIANA UNIVERSITY RESEARCH AND TECHNOLOGY, published 2012)
Numbered stars: 1 amine (or outer) side, 2 acyl side, 3 side chain; on linkers, the order of the positions; unused ones are H or OH. Square brackets hold non-standard residues; d marks the D form. Primed or numbered codes have the meaning given here. Side chains are listed from the residue outwards. Ends that are not written are not given here. * marks the point of attachment. 40K‑TE PEG = 40 kDa PEG covalently bound via thioether, formed by reaction of the free thiol of the peptide (Cys side chain) with an iodoacetic-functionalized PEG; 40K‑TE PEG″ = 40 kDa PEG bound to Cys via thioether made from an iodoacetyl-functionalised PEG; γGlu = O=C(O)[C@H](CCC(=O)[*:2])N[*:1]; Palmitoyl = CCCCCCCCCCCCCCCC(=O)*; Orn = NCCC[C@H](N)C(=O)O; Aib = CC(C)(N)C(=O)O

Key:
Test in all cases: cell-based or functional assay
glucagon receptor = target: glucagon receptor
GLP-1 receptor = target: GLP-1 receptor
GIP receptor = target: T1, GIP receptor
T1 sequence (P48546 whole entry, species assumed, looked up): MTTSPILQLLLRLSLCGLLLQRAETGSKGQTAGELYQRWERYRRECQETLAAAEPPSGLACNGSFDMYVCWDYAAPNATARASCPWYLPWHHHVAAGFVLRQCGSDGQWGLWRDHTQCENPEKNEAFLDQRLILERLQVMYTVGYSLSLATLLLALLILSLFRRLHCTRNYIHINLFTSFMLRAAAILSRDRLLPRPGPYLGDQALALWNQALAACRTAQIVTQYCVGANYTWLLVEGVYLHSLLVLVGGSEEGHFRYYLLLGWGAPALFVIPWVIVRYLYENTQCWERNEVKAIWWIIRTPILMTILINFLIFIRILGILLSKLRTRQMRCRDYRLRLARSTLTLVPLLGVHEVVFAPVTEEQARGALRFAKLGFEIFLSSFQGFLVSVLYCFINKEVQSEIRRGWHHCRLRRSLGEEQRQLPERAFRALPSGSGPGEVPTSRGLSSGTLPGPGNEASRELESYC

B1: peptide of SEQ ID NO: 29 (peptide)
peptide: H[Aib]QGTFTSDK([γGlu-γGlu-Palmitoyl])SKYLD[Aib]RAAQDFVQWLL[Aib]GRG-NH2
modifications: N-terminus assumed
SMILES: CCCCCCCCCCCCCCCC(=O)N[C@@H](CCC(=O)N[C@@H](CCC(=O)NCCCC[C@H](NC(=O)[C@H](CC(=O)O)NC(=O)[C@H](CO)NC(=O)[C@@H](NC(=O)[C@H](Cc1ccccc1)NC(=O)[C@@H](NC(=O)CNC(=O)[C@H](CCC(N)=O)NC(=O)C(C)(C)NC(=O)[C@@H](N)Cc1c[nH]cn1)[C@@H](C)O)[C@@H](C)O)C(=O)N[C@@H](CO)C(=O)N[C@@H](CCCCN)C(=O)N[C@@H](Cc1ccc(O)cc1)C(=O)N[C@@H](CC(C)C)C(=O)N[C@@H](CC(=O)O)C(=O)NC(C)(C)C(=O)N[C@@H](CCCNC(=N)N)C(=O)N[C@@H](C)C(=O)N[C@@H](C)C(=O)N[C@@H](CCC(N)=O)C(=O)N[C@@H](CC(=O)O)C(=O)N[C@@H](Cc1ccccc1)C(=O)N[C@H](C(=O)N[C@@H](CCC(N)=O)C(=O)N[C@@H](Cc1c[nH]c2ccccc12)C(=O)N[C@@H](CC(C)C)C(=O)N[C@@H](CC(C)C)C(=O)NC(C)(C)C(=O)NCC(=O)N[C@@H](CCCNC(=N)N)C(=O)NCC(N)=O)C(C)C)C(=O)O)C(=O)O
B1 was tested, and the “EC50 (nM) at glucagon receptor” value (glucagon receptor) was 0.014 nM, the “EC50 (nM) at GLP-1 receptor” value (GLP-1 receptor) was 0.007 nM and the “EC50 (nM) at GIP receptor” value (GIP receptor) was 1.65 nM.

B2: peptide of SEQ ID NO: 30 (peptide)
peptide: H[Aib]QGTFTSDK([γGlu-Palmitoyl])SKYLD[Aib]RAAQDFVQWLLDGRG-NH2
modifications: N-terminus assumed
SMILES: CCCCCCCCCCCCCCCC(=O)N[C@@H](CCC(=O)NCCCC[C@H](NC(=O)[C@H](CC(=O)O)NC(=O)[C@H](CO)NC(=O)[C@@H](NC(=O)[C@H](Cc1ccccc1)NC(=O)[C@@H](NC(=O)CNC(=O)[C@H](CCC(N)=O)NC(=O)C(C)(C)NC(=O)[C@@H](N)Cc1c[nH]cn1)[C@@H](C)O)[C@@H](C)O)C(=O)N[C@@H](CO)C(=O)N[C@@H](CCCCN)C(=O)N[C@@H](Cc1ccc(O)cc1)C(=O)N[C@@H](CC(C)C)C(=O)N[C@@H](CC(=O)O)C(=O)NC(C)(C)C(=O)N[C@@H](CCCNC(=N)N)C(=O)N[C@@H](C)C(=O)N[C@@H](C)C(=O)N[C@@H](CCC(N)=O)C(=O)N[C@@H](CC(=O)O)C(=O)N[C@@H](Cc1ccccc1)C(=O)N[C@H](C(=O)N[C@@H](CCC(N)=O)C(=O)N[C@@H](Cc1c[nH]c2ccccc12)C(=O)N[C@@H](CC(C)C)C(=O)N[C@@H](CC(C)C)C(=O)N[C@@H](CC(=O)O)C(=O)NCC(=O)N[C@@H](CCCNC(=N)N)C(=O)NCC(N)=O)C(C)C)C(=O)O
In the case of B2, the “EC50 (nM) at glucagon receptor” value (glucagon receptor) is reported as 0.933 nM, the “EC50 (nM) at GLP-1 receptor” value (GLP-1 receptor) is reported as 0.0082 nM and the “EC50 (nM) at GIP receptor” value (GIP receptor) is reported as 9.06 nM.

B3: peptide of SEQ ID NO: 31 (peptide)
peptide: H[Aib]QGTFTSDK([γGlu-γGlu-Palmitoyl])SKYLD[Aib]RAAQDFVQWLMKGRG-OH
modifications: N-terminus assumed
SMILES: CCCCCCCCCCCCCCCC(=O)N[C@@H](CCC(=O)N[C@@H](CCC(=O)NCCCC[C@H](NC(=O)[C@H](CC(=O)O)NC(=O)[C@H](CO)NC(=O)[C@@H](NC(=O)[C@H](Cc1ccccc1)NC(=O)[C@@H](NC(=O)CNC(=O)[C@H](CCC(N)=O)NC(=O)C(C)(C)NC(=O)[C@@H](N)Cc1c[nH]cn1)[C@@H](C)O)[C@@H](C)O)C(=O)N[C@@H](CO)C(=O)N[C@@H](CCCCN)C(=O)N[C@@H](Cc1ccc(O)cc1)C(=O)N[C@@H](CC(C)C)C(=O)N[C@@H](CC(=O)O)C(=O)NC(C)(C)C(=O)N[C@@H](CCCNC(=N)N)C(=O)N[C@@H](C)C(=O)N[C@@H](C)C(=O)N[C@@H](CCC(N)=O)C(=O)N[C@@H](CC(=O)O)C(=O)N[C@@H](Cc1ccccc1)C(=O)N[C@H](C(=O)N[C@@H](CCC(N)=O)C(=O)N[C@@H](Cc1c[nH]c2ccccc12)C(=O)N[C@@H](CC(C)C)C(=O)N[C@@H](CCSC)C(=O)N[C@@H](CCCCN)C(=O)NCC(=O)N[C@@H](CCCNC(=N)N)C(=O)NCC(=O)O)C(C)C)C(=O)O)C(=O)O
With B3 the “EC50 (nM) at glucagon receptor” value (glucagon receptor) was 0.016 nM, the “EC50 (nM) at GLP-1 receptor” value (GLP-1 receptor) was 0.007 nM and the “EC50 (nM) at GIP receptor” value (GIP receptor) was 2.34 nM.

With H[Aib]QGTFTSDK([γGlu-γGlu-Palmitoyl])SKYLD[Aib]RAAQDFVQWLMDTK[dA]-OH [peptide of SEQ ID NO: 32] the “EC50 (nM) at glucagon receptor” value (glucagon receptor) was 0.007 nM, the “EC50 (nM) at GLP-1 receptor” value (GLP-1 receptor) was 0.008 nM and the “EC50 (nM) at GIP receptor” value (GIP receptor) was 2.08 nM.

B4: peptide of SEQ ID NO: 33 (peptide)
peptide: H[Aib]QGTFTSDK([γGlu-γGlu-Palmitoyl])SKYLD[Aib]RAAQDFVQWLM[Orn]T[Orn]E-OH
modifications: N-terminus assumed
SMILES: CCCCCCCCCCCCCCCC(=O)N[C@@H](CCC(=O)N[C@@H](CCC(=O)NCCCC[C@H](NC(=O)[C@H](CC(=O)O)NC(=O)[C@H](CO)NC(=O)[C@@H](NC(=O)[C@H](Cc1ccccc1)NC(=O)[C@@H](NC(=O)CNC(=O)[C@H](CCC(N)=O)NC(=O)C(C)(C)NC(=O)[C@@H](N)Cc1c[nH]cn1)[C@@H](C)O)[C@@H](C)O)C(=O)N[C@@H](CO)C(=O)N[C@@H](CCCCN)C(=O)N[C@@H](Cc1ccc(O)cc1)C(=O)N[C@@H](CC(C)C)C(=O)N[C@@H](CC(=O)O)C(=O)NC(C)(C)C(=O)N[C@@H](CCCNC(=N)N)C(=O)N[C@@H](C)C(=O)N[C@@H](C)C(=O)N[C@@H](CCC(N)=O)C(=O)N[C@@H](CC(=O)O)C(=O)N[C@@H](Cc1ccccc1)C(=O)N[C@H](C(=O)N[C@@H](CCC(N)=O)C(=O)N[C@@H](Cc1c[nH]c2ccccc12)C(=O)N[C@@H](CC(C)C)C(=O)N[C@@H](CCSC)C(=O)N[C@@H](CCCN)C(=O)N[C@H](C(=O)N[C@@H](CCCN)C(=O)N[C@@H](CCC(=O)O)C(=O)O)[C@@H](C)O)C(C)C)C(=O)O)C(=O)O
B4 was tested, and the “EC50 (nM) at glucagon receptor” value (glucagon receptor) was 0.023 nM, the “EC50 (nM) at GLP-1 receptor” value (GLP-1 receptor) was 0.019 nM and the “EC50 (nM) at GIP receptor” value (GIP receptor) was 3.96 nM.

In the case of H[Aib]QGTFTSDYSKYLDERRA[Aib]EFVC(40K‑TE PEG″)WLLDGGPSSGAPPPS-NH2 [peptide of SEQ ID NO: 35], the “EC50 (nM) at glucagon receptor” value (glucagon receptor) is reported as 1.18 nM, the “EC50 (nM) at GLP-1 receptor” value (GLP-1 receptor) is reported as 0.085 nM and the “EC50 (nM) at GIP receptor” value (GIP receptor) is reported as 16.1 nM.

B5: peptide of SEQ ID NO: 36 (peptide)
peptide: H[Aib]QGTFTSDK([γGlu-Palmitoyl])SKYLD[Aib]RAAQDFVQWLKDGRG-NH2
modifications: N-terminus assumed
SMILES: CCCCCCCCCCCCCCCC(=O)N[C@@H](CCC(=O)NCCCC[C@H](NC(=O)[C@H](CC(=O)O)NC(=O)[C@H](CO)NC(=O)[C@@H](NC(=O)[C@H](Cc1ccccc1)NC(=O)[C@@H](NC(=O)CNC(=O)[C@H](CCC(N)=O)NC(=O)C(C)(C)NC(=O)[C@@H](N)Cc1c[nH]cn1)[C@@H](C)O)[C@@H](C)O)C(=O)N[C@@H](CO)C(=O)N[C@@H](CCCCN)C(=O)N[C@@H](Cc1ccc(O)cc1)C(=O)N[C@@H](CC(C)C)C(=O)N[C@@H](CC(=O)O)C(=O)NC(C)(C)C(=O)N[C@@H](CCCNC(=N)N)C(=O)N[C@@H](C)C(=O)N[C@@H](C)C(=O)N[C@@H](CCC(N)=O)C(=O)N[C@@H](CC(=O)O)C(=O)N[C@@H](Cc1ccccc1)C(=O)N[C@H](C(=O)N[C@@H](CCC(N)=O)C(=O)N[C@@H](Cc1c[nH]c2ccccc12)C(=O)N[C@@H](CC(C)C)C(=O)N[C@@H](CCCCN)C(=O)N[C@@H](CC(=O)O)C(=O)NCC(=O)N[C@@H](CCCNC(=N)N)C(=O)NCC(N)=O)C(C)C)C(=O)O
For B5, the “EC50 (nM) at glucagon receptor” value (glucagon receptor) was 0.028 nM, the “EC50 (nM) at GLP-1 receptor” value (GLP-1 receptor) was 0.003 nM and the “EC50 (nM) at GIP receptor” value (GIP receptor) was 0.47 nM.

H[Aib]QGTFTSDK([γGlu-γGlu-Palmitoyl])SKYLD[Aib]RAAQDFVQWLMKTK[dE]-OH [peptide of SEQ ID NO: 37] was tested, and the “EC50 (nM) at glucagon receptor” value (glucagon receptor) was 0.018 nM, the “EC50 (nM) at GLP-1 receptor” value (GLP-1 receptor) was 0.016 nM and the “EC50 (nM) at GIP receptor” value (GIP receptor) was 3.3 nM.

In the case of H[Aib]QGTFTSDYSKYLDEKRA[Aib]EFVC(40K‑TE PEG)WLMDT-NH2 [peptide of SEQ ID NO: 15], the “EC50 (nM) at glucagon receptor” value (glucagon receptor) is reported as 1.1 nM, the “EC50 (nM) at GLP-1 receptor” value (GLP-1 receptor) is reported as 0.071 nM and the “EC50 (nM) at GIP receptor” value (GIP receptor) is reported as 316 nM.
